Columns and labels:
HeLa Kyoto [1] = assay: thermal stability score vs G1/S (z-score of summed log2 fold changes over temperatures); higher = more thermally stable than in G1/S
HeLa Kyoto [2] = assay: solubility in G1/S (NP-40 vs SDS abundance) (log2 ratio); higher = more soluble; details: cell cycle stage: G1/S
HeLa Kyoto [3] = assay: solubility change mitosis vs G1/S (difference of NP-40 vs SDS log2 ratios) (log2 ratio difference); higher = more soluble in mitosis
HeLa Kyoto [4] = assay: melting temperature (median over replicates), in situ; higher = more thermally stable
[5] = cell cycle stage: early G1 (4.5 h after nocodazole release)
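Wherever melting temperature (median over replicates), in situ is given: HeLa Kyoto cells synchronized by double thymidine or nocodazole block, proteins quantified by TMT10plex mass spectrometry, three independent biological replicates.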
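Wherever solubility change mitosis vs G1/S (difference of NP-40 vs SDS log2 ratios) is given: synchronized HeLa Kyoto cells (double thymidine block for G1/S, nocodazole release for mitosis), protein amounts in NP-40 versus SDS lysates quantified by mass spectrometry, three biological replicates.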
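Wherever solubility in G1/S (NP-40 vs SDS abundance) is given: HeLa Kyoto cells arrested at G1/S by double thymidine block, proteins quantified by TMT10plex mass spectrometry in mild NP-40 versus SDS extracts, three biological replicates.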
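Wherever thermal stability score vs G1/S (z-score of summed log2 fold changes over temperatures) is given: synchronized HeLa Kyoto cells, proteins quantified by TMT10plex mass spectrometry, three biological replicates, mitosis taken 0.5 h after nocodazole release, G1/S directly after double thymidine block.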

Row | Sequence | thermal stability score (HeLa Kyoto [1]; [5]) | thermal stability score (HeLa Kyoto [1]; cell cycle stage: mitosis) | solubility in G1/S (log2) (HeLa Kyoto [2]) | solubility change mitosis (log2) (HeLa Kyoto [3]) | melting temperature (HeLa Kyoto [4]; cell cycle stage: G1/S) [°C] | melting temperature (HeLa Kyoto [4]; cell cycle stage: mitosis) [°C]
1 | MRSARSTALNRGEQRAVRYYSHMKLNMAEEEDYMSDSFINVQEDIRPGLPMLRQIREARRKEEKQQEANLKNRQKSLKEEEQERRDIGLKNALGCENKGFALLQKMGYKSGQALGKSGGGIVEPIPLNIKTGKSGIGHEASLKRKAEEKLESYRKKIHMKNQAEEKAAEQFRMRLKNKQDEMKLEGDLRRSQRACQQLDVQKNIQVPREAWYWLRLEEETEEDEEEKEQDEDEYKSEDLSVLEKLQILTSYLREEHLYCIWCGTAYEDKEDLSSNCPGPTSADHD [GPATCH11] | -1.77 | -0.0183 | 0.127 | 0.138 | 52.1 | 52.3
2 | MRSSCVLLTALVALAAYYVYIPLPGSVSDPWKLMLLDATFRGAQQVSNLIHYLGLSHHLLALNFIIVSFGKKSAWSSAQVKVTDTDFDGVEVRVFEGPPKPEEPLKRSVVYIHGGGWALASAKIRYYDELCTAMAEELNAVIVSIEYRLVPKVYFPEQIHDVVRATKYFLKPEVLQKYMVDPGRICISGDSAGGNLAAALGQQFTQDASLKNKLKLQALIYPVLQALDFNTPSYQQNVNTPILPRYVMVKYWVDYFKGNYDFVQAMIVNNHTSLDVEEAAAVRARLNWTSLLPASFTKNYKPVVQTTGNARIVQELPQLLDARSAPLIADQAVLQLLPKTYILTCEHDVLRDDGIMYAKRLESAGVEVTLDHFEDGFHGCMIFTSWPTNFSVGIRTRNSYIKWLDQNL [NCEH1] | -0.627 | -0.868 | 0.156 | -0.118 | 57.4 | 57.7
3 | MSAAGLLAPAPAQAGAPPAPEYYPEEDEELESAEDDERSCRGRESDEDTEDASETDLAKHDEEDYVEMKEQMYQDKLASLKRQLQQLQEGTLQEYQKRMKKLDQQYKERIRNAELFLQLETEQVERNYIKEKKAAVKEFEDKKVELKENLIAELEEKKKMIENEKLTMELTGDSMEVKPIMTRKLRRRPNDPVPIPDKRRKPAPAQLNYLLTDEQIMEDLRTLNKLKSPKRPASPSSPEHLPATPAESPAQRFEARIEDGKLYYDKRWYHKSQAIYLESKDNQKLSCVISSVGANEIWVRKTSDSTKMRIYLGQLQRGLFVIRRRSAA [SUDS3] | 0.216 | 0.399 | 0.341 | 0.238 | 49 | 50.6
4 | MSAAKENPCRKFQANIFNKSKCQNCFKPRESHLLNDEDLTQAKPIYGGWLLLAPDGTDFDNPVHRSRKWQRRFFILYEHGLLRYALDEMPTTLPQGTINMNQCTDVVDGEGRTGQKFSLCILTPEKEHFIRAETKEIVSGWLEMLMVYPRTNKQNQKKKRKVEPPTPQEPGPAKVAVTSSSSSSSSSSSIPSAEKVPTTKSTLWQEEMRTKDQPDGSSLSPAQSPSQSQPPAASSLREPGLESKEEESAMSSDRMDCGRKVRVESGYFSLEKTKQDLKAEEQQLPPPLSPPSPSTPNHRRSQVIEKFEALDIEKAEHMETNAVGPSPSSDTRQGRSEKRAFPRKRDFTNEAPPAPLPDASASPLSPHRRAKSLDRRSTEPSVTPDLLNFKKGWLTKQYEDGQWKKHWFVLADQSLRYYRDSVAEEAADLDGEIDLSACYDVTEYPVQRNYGFQIHTKEGEFTLSAMTSGIRRNWIQTIMKHVHPTTAPDVTSSLPEEKNKSSCSFETCPRPTEKQEAELGEPDPEQKRSRARERRREGRSKTFDWAEFRPIQQALAQERVGGVGPADTHEPLRPEAEPGELERERARRREERRKRFGMLDATDGPGTEDAALRMEVDRSPGLPMSDLKTHNVHVEIEQRWHQVETTPLREEKQVPIAPVHLSSEDGGDRLSTHELTSLLEKELEQSQKEASDLLEQNRLLQDQLRVALGREQSAREGYVLQATCERGFAAMEETHQKKIEDLQRQHQRELEKLREEKDRLLAEETAATISAIEAMKNAHREEMERELEKSQRSQISSVNSDVEALRRQYLEELQSVQRELEVLSEQYSQKCLENAHLAQALEAERQALRQCQRENQELNAHNQELNNRLAAEITRLRTLLTGDGGGEATGSPLAQGKDAYELEVLLRVKESEIQYLKQEISSLKDELQTALRDKKYASDKYKDIYTELSIAKAKADCDISRLKEQLKAATEALGEKSPDSATVSGYDIMKSKSNPDFLKKDRSCVTRQLRNIRSKSVIEQVSWDT [MPRIP] | -0.81 | -1.05 | -1.2 | 0.41 | 51.9 | 52.6
5 | MSAFSEAALEKKLSELSNSQQSVQTLSLWLIHHRKHSRPIVTVWERELRKAKPNRKLTFLYLANDVIQNSKRKGPEFTKDFAPVIVEAFKHVSSETDESCKKHLGRVLSIWEERSVYENDVLEQLKQALYGDKKPRKRTYEQIKVDENENCSSLGSPSEPPQTLDLVRALQDLENAASGDAAVHQRIASLPVEVQEVSLLDKITDKESGERLSKMVEDACMLLADYNGRLAAEIDDRKQLTRMLADFLRCQKEALAEKEHKLEEYKRKLARVSLVRKELRSRIQSLPDLSRLPNVTGSHMHLPFAGDIYSED [RPRD1A] | 1.27 | 1.64 | 0.66 | -0.0443 | 48 | 49.5
6 | MSAIQAAWPSGTECIAKYNFHGTAEQDLPFCKGDVLTIVAVTKDPNWYKAKNKVGREGIIPANYVQKREGVKAGTKLSLMPWFHGKITREQAERLLYPPETGLFLVRESTNYPGDYTLCVSCDGKVEHYRIMYHASKLSIDEEVYFENLMQLVEHYTSDADGLCTRLIKPKVMEGTVAAQDEFYRSGWALNMKELKLLQTIGKGEFGDVMLGDYRGNKVAVKCIKNDATAQAFLAEASVMTQLRHSNLVQLLGVIVEEKGGLYIVTEYMAKGSLVDYLRSRGRSVLGGDCLLKFSLDVCEAMEYLEGNNFVHRDLAARNVLVSEDNVAKVSDFGLTKEASSTQDTGKLPVKWTAPEALREKKFSTKSDVWSFGILLWEIYSFGRVPYPRIPLKDVVPRVEKGYKMDAPDGCPPAVYEVMKNCWHLDAAMRPSFLQLREQLEHIKTHELHL [CSK] | -0.12 | 0.74 | 0.0872 | -0.139 | 49.3 | 49.8
7 | MSAKAISEQTGKELLYKFICTTSAIQNRFKYARVTPDTDWARLLQDHPWLLSQNLVVKPDQLIKRRGKLGLVGVNLTLDGVKSWLKPRLGQEATVGKATGFLKNFLIEPFVPHSQAEEFYVCIYATREGDYVLFHHEGGVDVGDVDAKAQKLLVGVDEKLNPEDIKKHLLVHAPEDKKEILASFISGLFNFYEDLYFTYLEINPLVVTKDGVYVLDLAAKVDATADYICKVKWGDIEFPPPFGREAYPEEAYIADLDAKSGASLKLTLLNPKGRIWTMVAGGGASVVYSDTICDLGGVNELANYGEYSGAPSEQQTYDYAKTILSLMTREKHPDGKILIIGGSIANFTNVAATFKGIVRAIRDYQGPLKEHEVTIFVRRGGPNYQEGLRVMGEVGKTTGIPIHVFGTETHMTAIVGMALGHRPIPNQPPTAAHTANFLLNASGSTSTPAPSRTASFSESRADEVAPAKKAKPAMPQDSVPSPRSLQGKSTTLFSRHTKAIVWGMQTRAVQGMLDFDYVCSRDEPSVAAMVYPFTGDHKQKFYWGHKEILIPVFKNMADAMRKHPEVDVLINFASLRSAYDSTMETMNYAQIRTIAIIAEGIPEALTRKLIKKADQKGVTIIGPATVGGIKPGCFKIGNTGGMLDNILASKLYRPGSVAYVSRSGGMSNELNNIISRTTDGVYEGVAIGGDRYPGSTFMDHVLRYQDTPGVKMIVVLGEIGGTEEYKICRGIKEGRLTKPIVCWCIGTCATMFSSEVQFGHAGACANQASETAVAKNQALKEAGVFVPRSFDELGEIIQSVYEDLVANGVIVPAQEVPPPTVPMDYSWARELGLIRKPASFMTSICDERGQELIYAGMPITEVFKEEMGIGGVLGLLWFQKRLPKYSCQFIEMCLMVTADHGPAVSGAHNTIICARAGKDLVSSLTSGLLTIGDRFGGALDAAAKMFSKAFDSGIIPMEFVNKMKKEGKLIMGIGHRVKSINNPDMRVQILKDYVRQHFPATPLLDYALEVEKITTSKKPNLILNVDGLIGVAFVDMLRNCGSFTREEADEYIDIGALNGIFVLGRSMGFIGHYLDQKRLKQGLYRHPWDDISYVLPEHMSM [ACLY] | 2.8 | 4.04 | -0.0323 | -0.156 | 52.2 | 52.6
8 | MSALEWYAHKSLGDGIFWIQERFYESGNRANIWLVRGSEQDVVIDTGLGLRSLPEYLYSSGLLQDREAKEDAARRPLLAVATHVHFDHSGGLYQFDRVAVHHAEAEALARGDNFETVTWLSDSEVVRTPSPGWRARQFRVQAVQPTLILQDGDVINLGDRQLTVMHMPGHSRGSICLHDKDRKILFSGDVVYDGSLIDWLPYSRISDYVGTCERLIELVDRGLVEKVLPGHFNTFGAERLFRLASNYISKAGICHKVSTFAMRSLASLALRVTNSRTSP [MBLAC2] | -1.94 | -1.79 | -0.203 | 0.0124 | 55.4 | 54.6

From the supplement of paper PMC5998384
